Results published in publication PMC10157364 (2023).

Columns and labels:
[1] = target: T1, human MIF treated with 0.2% Proclin300 (oxMIF surrogate) (human, UniProt P14174 1-115, treated with 0.2% Proclin300 to transform MIF into an oxMIF surrogate); test: SPR
T1 chain: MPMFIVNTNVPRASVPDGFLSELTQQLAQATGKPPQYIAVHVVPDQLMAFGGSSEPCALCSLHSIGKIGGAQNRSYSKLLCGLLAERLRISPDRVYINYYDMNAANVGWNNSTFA

[2] = target: mouse MIF treated with 0.2% Proclin300 (oxMIF surrogate) (mouse, UniProt P34884 1-115, treated with 0.2% Proclin300 to transform MIF into an oxMIF surrogate); test: ELISA
[3] = target: T1, human MIF treated with 0.2% Proclin300 …; test: ELISA

B1: ON103 (antibody, V domains shown)
VH: EVQLQESGGGLVQPGGSLRLSCAASGFTFSIYSMNWVRQAPGKGLEWVSSIGSSGGTTYYADSVKGRFTISRDNSKNTLYLQMNSLRAEDTAVYYCAGSQYLYGMDVWGQGTTVTVSS
VL: DIQMTQSPSSLSASVGDRVTITCRSSQRILTYLNWYQQKPGKAPKLLIYVGSHSQSGVPSRFRGSGSETDFTLTISGLQSEDSATYYCQQSFFTPLTFGGGTKVEIK
Kd [1]: 3.7 nM | EC50 [2]: 4.6 nM | EC50 [3]: 0.6 nM

B2: ON203 (antibody, V domains shown)
VH: EVQLQESGGGLVQPGGSLRLSCAASGFTFSIYSMNWVRQAPGKGLEWVSSIGSSGGTTYYADSVKGRFTISRDNSKNTLYLQMNSLRAEDTAVYYCAGSQYLYGMDVWGQGTTVTVSS
VL: DIQMTQSPSSLSASVGDRVTITCRSSQRIMTYLNWYQQKPGKAPKLLIYVGSHSQSGVPSRFRGSGSETDFTLTISGLQPEDSATYYCQQSFFTPLTFGGGTKVEIK
Kd [1]: 6.1 nM | EC50 [2]: 5.2 nM | EC50 [3]: 0.7 nM

B3: C0008 (antibody, V domains shown)
VH: EVQLLESGGGLVQPGGSLRLSCAASGFTFSIYSMNWVRQAPGKGLEWVSSIGSSGGTTYYADSVKGRFTISRDNSKNTLYLQMNSLRAEDTAVYYCAGSQWLYGMDVWGQGTTVTVSS
VL: DIQMTQSPSSLSASVGDRVTITCRSSQRIMTYLNWYQQKPGKAPKLLIFVASHSQSGVPSRFRGSGSETDFTLTISGLQPEDSATYYCQQSFWTPLTFGGGTKVEIK
Kd [1]: 3.5 nM | EC50 [2]: 3.1 nM | EC50 [3]: 0.6 nM
